Data set [1] has as its system PI(3,4,5)P3 lipid vesicles. The data set can be described thus: Competitive binding of myosin-1 tails to PI(3,4,5)P3 vesicles (western blot of supernatant and pellet). The procedure:
(§1) Phospholipid binding assays were performed using commercially available lipid vesicles (PolyPIPosomes™, 200 nm diameter; Echelon Biosciences) composed of 95% PE + PC and 5% of the phosphoinositide of interest. Accessible phospholipid concentration was calculated as half of the total phospholipid content. Myosin-1 tail (500 nM) in co-sedimentation buffer (10 mM Tris, pH 7.5, 100 mM NaCl, 1 mM EGTA) was incubated with increasing concentrations of PolyPIPosomes™ (accessible PIP range: 10 nM to 10 mM) at room temperature for 30 min, followed by centrifugation at 25,000 g to separate bound and unbound fractions. Bound myosin-1 tail was quantified either by measuring fluorescence intensity of the supernatant (Jasco FP-6500 fluorimeter, excitation 514 nm) or by western blot of pellet and supernatant fractions using anti-GST antibody as indicated in the experiments. […] Microtubule binding assays employed 100 mM PIPES (pH 6.8), 2 mM MgCl2, 1 mM EGTA, 20 µM paclitaxel, and 1 mM GTP. […] Fluorescence intensities of pellet and supernatant fractions were quantified as described above.
To gain deeper insight into the binding specificity of the myosin tails, we conducted competition experiments in which two tail constructs were simultaneously present in the PIP-binding assay, allowing us to assess their ability to compete for binding to the same lipid species. We performed these experiments using PI(3,4,5)P₃ (PIP₃) as an exemplary lipid, first in the absence and then in the presence of a second tail isoform. Two tail pairs were tested: those of myosin-1B and myosin-1D, and those of myosin-1C and myosin-1D (Figs. 3a, c). […] These findings establish myosin-1D as the dominant binder of PIP₃, capable of outcompeting myosin-1B and myosin-1C for membrane association.
Fig. 3 Competitive binding of myosin-1 tails to PI(3,4,5)P₃. a, c Western blots of supernatant and pellet fractions from lipid vesicles containing PI(3,4,5)P₃ following incubation with 2 µM myosin-1B tail (~ 70 kDa) (a) or myosin-1C tail (~ 70 kDa) (c) in competition with myosin-1D tail (~ 100 kDa). The total accessible PI(3,4,5)P₃ concentration was maintained at 2 µM. b, d Dashed boxes indicate the fraction of myosin-1 tails bound to lipid vesicles in the absence of the other myosin isoform. Orange bars denote the fraction of bound myosin in the presence of the competing myosin TEXT PRINTED IN THE PICTURE: (b) myosin-1D: % myosin bound to PI(3,4,5)P3: 90%; % myosin bound to PI(3,4,5)P3: 86% | (b) myosin-1B: % myosin bound to PI(3,4,5)P3: 71%; % myosin bound to PI(3,4,5)P3: 32% | (d) myosin-1D: % myosin bound to PI(3,4,5)P3: 94%; % myosin bound to PI(3,4,5)P3: 85% | (d) myosin-1C: % myosin bound to PI(3,4,5)P3: 32%; % myosin bound to PI(3,4,5)P3: 9%
In general terms: A western blot detects proteins with antibodies after separation by electrophoresis.

In data set [2] the target is PI(3)P lipid vesicles (PolyPIPosomes). The data set can be described thus: Cosedimentation of myosin-1 tails with PI(3)P vesicles. Particulars: 500 nM tail; vesicles with 5% phosphoinositide; read-out: KD, tail binding to PI(3)P. As to the method: as §1, with “above. […]” for “above.”
(§2) Fig. 1 Myosin-1 tail binding to phosphoinositides. a Representative fluorescence spectra of supernatants from co-sedimentation assays with YFP-tagged myosin-1D tail and increasing concentrations of lipid vesicles containing PI(3,5)P₂. […]

The target in data set [3] is PI(3,4,5)P3 lipid vesicles (PolyPIPosomes). Put plainly: Cosedimentation of myosin-1 tails with PI(3,4,5)P3 vesicles. The settings on record: 500 nM tail; vesicles with 5% phosphoinositide; read-out: KD, tail binding to PI(3,4,5)P3. As to the method:
as §1, with “above. […]” for “above.”
as §2

Data set [4] relates to microtubules and F-actin. The data set can be described thus: TIRF microscopy of microtubule/F-actin cross-linking by myosin-1 tails. The class given is biochemical. The settings on record: 1 µM tail construct.
The target in data set [5] is PI(3,5)P2 lipid vesicles (PolyPIPosomes). Put plainly: Cosedimentation of myosin-1 tails with PI(3,5)P2 vesicles (fluorescence or immunoblot detection). Particulars: 500 nM tail; vesicles with 5% phosphoinositide; read-out: KD, tail binding to PI(3,5)P2. The procedure:
Phospholipid binding assays were performed using commercially available lipid vesicles (PolyPIPosomes™, 200 nm diameter; Echelon Biosciences) composed of 95% PE + PC and 5% of the phosphoinositide of interest. Accessible phospholipid concentration was calculated as half of the total phospholipid content. Myosin-1 tail (500 nM) in co-sedimentation buffer (10 mM Tris, pH 7.5, 100 mM NaCl, 1 mM EGTA) was incubated with increasing concentrations of PolyPIPosomes™ (accessible PIP range: 10 nM to 10 mM) at room temperature for 30 min, followed by centrifugation at 25,000 g to separate bound and unbound fractions. Bound myosin-1 tail was quantified either by measuring fluorescence intensity of the supernatant (Jasco FP-6500 fluorimeter, excitation 514 nm) or by western blot of pellet and supernatant fractions using anti-GST antibody as indicated in the experiments. […] Fluorescence intensities of pellet and supernatant fractions were quantified as described above. […]
as §2
Supplementary Fig. S2. Lipid dot blot assays and comparisons between fluorescence-based detection and immunoblot detection of myosin-1-PI(3,5)P2 interactions. […]

The target of data set [6] is PC, PS lipid vesicles. Put plainly: Cosedimentation of myosin-1 tails with lipid vesicles devoid of phosphoinositides. The settings on record: 500 nM tail; vesicles without phosphoinositide; read-out: KD, tail binding to PC, PS. The procedure:
as §1, with “above. […]” for “above.”
as §2

Data set [7] deals with PI(4,5)P2 lipid vesicles (PolyPIPosomes). Put plainly: Cosedimentation of myosin-1 tails with PI(4,5)P2 vesicles. The settings on record: 500 nM tail; vesicles with 5% phosphoinositide; read-out: KD, tail binding to PI(4,5)P2. The procedure: as §1, with “above. […]” for “above.”
as §2

Data set [8] has as its system isolated nuclei from Dictyostelium cells. Put plainly: Binding of YFP-tagged myosin tail constructs to isolated nuclei, confocal microscopy. Also noted: species or system Dictyostelium discoideum. Particulars: 1 µM tail construct, 30 min.
The target in data set [9] is PI (unphosphorylated phosphatidylinositol) lipid vesicles. The data set can be described thus: Fluorescence-based cosedimentation of myosin-1 tails with lipid vesicles containing PI. Particulars: 500 nM tail, accessible phospholipid, read-out: KD, tail binding to PI. The procedure: as §1, with “above. […]” for “above.”
as §2

In data set [10] the target is PI(5)P lipid vesicles (PolyPIPosomes). Put plainly: Cosedimentation of myosin-1 tails with PI(5)P vesicles. The settings on record: 500 nM tail; vesicles with 5% phosphoinositide; read-out: KD, tail binding to PI(5)P. The procedure:
as §1, with “above. […]” for “above.”
as §2

For data set [11], the target named is PI(4)P lipid vesicles (PolyPIPosomes). Put plainly: Cosedimentation of myosin-1 tails with PI(4)P vesicles. The settings on record: 500 nM tail; vesicles with 5% phosphoinositide; read-out: KD, tail binding to PI(4)P. As to the method:
as §1, with “above. […]” for “above.”
as §2

For data set [12], the target named is microtubules. Set-up: method as in Rump et al., 2010. The settings on record: ref Rump et al., 2010; read-out: KD, tail binding to microtubules; cited from earlier work.
Data set [13] relates to microtubules. Also noted: method as in PMID 21712373. The settings on record: read-out: Inhibition of the cold-induced depolymerization of microtubules IC50; cited from earlier work.
For data set [14], the target named is PI(3,4)P2 lipid vesicles (PolyPIPosomes). The data set can be described thus: Cosedimentation of myosin-1 tails with PI(3,4)P2 vesicles. The settings on record: 500 nM tail; vesicles with 5% phosphoinositide; read-out: KD, tail binding to PI(3,4)P2. The procedure: as §1, with “above. […]” for “above.”
as §2

Where [15] appears, read: in presence of competing myosin-1D tail, 2 µM each, PI(3,4,5)P3 2 µM.
[16] abbreviates: single tail 2 µM, absence of other isoform, accessible PI(3,4,5)P3 2 µM.

“Also recorded” adds a separate entry of the source.

B1: Myosin-1C-tail: Recombinant GST-/YFP-tagged tail construct of Dictyostelium discoideum myosin-1C (protein)
chain: RYWHDMASRIKNAYRNYKAFQFECSNRIKNAFRNYKLYRQRCAQTIQGYFRAWKQASPFFDLRMQNEQLFQGRKERNRFSMISVRKYFGDYLDVRSQSYFLDAMAEGRNEDVIFSSKSQVMVHPILSANKLSPRFLIVTKQAIYLIKLKQKKNLATYLLDRRVPLAEVTSFSLSSLADNLLVIHTSTQFDVAVTTEFKTELVALINKQKGTTLAVNFGQSIQYFKKKGSNNTVTFLKDEMHKEIFLKKNQFHIASGLPASTTVAKVRKNPSQVSTPSKPIAKPVAKPMVAKPSGGSVIMKKPAPAAPPSGPPVMKKPAPTAPGGAPMMKKPAPAPGGAPMMKKPAPVPGGPAPGGSAIMKPAGGVSKPLPSPTGAPMMKKPAPTAPGGPAPAGAPTPMMKKPAGQPMMKPIAKPQPTPMKKPAAPPPQQYIALYEYDAMQPDELTFKENDVINLIKKVDADWWQGELVRTKQIGMLPSNYVQQI
modifications: left off: GST, end not stated, state not stated | YFP, end not stated, kept
notes: Recombinant GST-/YFP-tagged tail construct of Dictyostelium discoideum myosin-1C
Broadly, the Kd is the constant that tells how readily two partners part at equilibrium. One may read the IC50 as the concentration that gives 50% inhibition. Take B1: the figures for the “% myosin bound to PI(3,4,5)P3” value in [1] (setting [15]) and in [1] (setting [16]) were 9% and approximately 32%, respectively. The Kd in data set [2] was found to be 4 ± 0.3 µM; in data set [3], 2.5 ± 0.3 µM; in [5] it was 0.6 ± 0.1 µM; in data set [6] it was 31.5 ± 2.7 µM; in data set [7], 1.1 ± 0.2 µM; in data set [9] it was 5.4 ± 0.8 µM. The Kd was 0.5 ± 0.1 µM in [10], 0.4 ± 0.1 µM in [11] and 0.08 ± 0.05 µM in data set [12]. Further, in data set [4], the “cross-linking of microtubules and actin filaments” value is “cross-linking activity”. In addition, the “association of YFP-tagged tail construct with isolated nuclei” value in [8] is “do not bind to nuclei; also recorded: did not associate with the nuclei”. In [13], the IC50 is approximately 0.002 µM.

B2: Myosin-1B-tail: Recombinant GST-/YFP-tagged tail construct of Dictyostelium discoideum myosin-1B (amino acids 717–1111) (protein)
chain: QRAQIAHMFKDKKERQRNSIDRKFTSDYIDFENQFGLQEAMQNAHKKERVVFADTVIKIDRRAKQKNYEMVLTDQALYFVEKSIKKKVLVHTLIRRVGLREIKGVSISTLSDNVIVFHLPEHDQVIENDKKTEIIIVLVEYFKAIGGGSLNVQFSDRINYTLKKGEQKEISFQKSEQCPTLVVKKGGKGLIGTIASGLPSSTDSTPKNYNPNSMSQASSRPAPQQSAGRGRGMPQGAGQPQPQQPQQQQRPMPQPQQGGGARPMPQPQQGGGARPMGAPQQGGAPQQGAGRQLPQPTQQGGAPGGRGAPMGRGAPGGGPAGAGGRPLPTVAKPAPQPSRPTAKALYDYDASSTDELSFKEGDIIFIVQKDNGGWTQGELKSGQKGWAPTNYLQYN
modifications: left off: GST, N-terminal, state not stated | YFP, C-terminal, kept
With B2, the results for the “% myosin bound to PI(3,4,5)P3” value in data set [1] (setting [15]) and in data set [1] (setting [16]) were 32% and approximately 71%, respectively. The Kd in data set [2] is 8.3 ± 1 µM; in data set [3], 1.1 ± 0.2 µM; in [6], more than 100 µM; in data set [9], 38.2 ± 4 µM; in data set [14], 2.2 ± 0.4 µM; in data set [10], 7.7 ± 0.6 µM. The Kd in data set [11] was determined as 2.3 ± 0.4 µM. Also, the “cross-linking of microtubules and actin filaments” value in data set [4] is recorded as “not observed”. Besides, the “association of YFP-tagged tail construct with isolated nuclei” value in [8] is on record as “do not bind to nuclei; also recorded: did not associate with the nuclei”.

Values taken from PMC12676778, “Long-tailed class I myosins rely on tail-mediated phosphoinositide recognition for specific membrane recruitment” (Cell Communication and Signaling : CCS, 2025).
